Holding throughout (settings): remark: other sources report otherwise
Test [1] addresses T1, untagged SARS-CoV-2 RBD expressed in E. coli BL21(DE3) and oxidatively refolded (RBDWT) (SARS-CoV-2), P0DTC2. The experiment in a line: BLI, RBD expressed in E. coli. (Biolayer interferometry detects binding as a change in optical thickness at a sensor tip.)
Test [2] concerns the target bacterially derived SARS-CoV RBD (SARS-CoV), P59594. Briefly: BLI, bacterially derived SARS-CoV RBD.
In test [3] the target is Mammalian SARS-CoV2 RBD (residues 331-524) with C-terminal 6XHis Tag (SARS-CoV-2), P0DTC2. The experiment in a line: ELISA on coated antigen, anti-human IgG-HRP. (In general: An ELISA detects its analyte on a solid surface through an enzyme-linked reagent.)
The target in test [4] is T1, untagged SARS-CoV-2 RBD expressed in E. …. Briefly: BLI, RBD expressed in E. coli, 1:1 Langmuir fit.

Bounds are passed on as bounds.

As a reminder, the half-life is how long it takes for the measured level to halve. Low values mean rapid decline, high ones slow decline. As a reminder, the Kd is the equilibrium constant for the complex coming apart. Low values mean a tighter complex, high ones a looser complex.

B1: mAb 2H04 (antibody)
chain 1: EVQLQQSGAELVKPGASVKMSCKASGYTFTSYWITWVKQRPGQGLEWIGDIYPGSGSTKYNEKFRSEATLTVDTSSTTAYMQLSSLTSEDSAVYYCARWDFYGSRTFDYWGQGTTLTVSS
chain 2: DIVLTQSPAILSVSPGERVSFSCRASQNIGTIIHWYQQRTNGSPRLLIKYASESVSGIPSRFSGSGSGTDFTLSINSVESEDIADYYCQQSSSWPLTFGAGTKLELK
Take B1: the half-life in test [1] stood at 76.2 s; in test [2], 25.8 s. For the same molecule, the equilibrium dissociation constant (Kd) in test [2] was 1420 nM; in test [4], 40 nM. This molecule also registered a minimum positive concentration in test [3] of under 5 µg/mL.
